The source of these data is patent publication US20220333113.

Positions count from the first letter of the chain named.

In data set [1] the target is T1, RIG-I R664A (Homo sapiens) (UniProt O95786).
T1 sequence: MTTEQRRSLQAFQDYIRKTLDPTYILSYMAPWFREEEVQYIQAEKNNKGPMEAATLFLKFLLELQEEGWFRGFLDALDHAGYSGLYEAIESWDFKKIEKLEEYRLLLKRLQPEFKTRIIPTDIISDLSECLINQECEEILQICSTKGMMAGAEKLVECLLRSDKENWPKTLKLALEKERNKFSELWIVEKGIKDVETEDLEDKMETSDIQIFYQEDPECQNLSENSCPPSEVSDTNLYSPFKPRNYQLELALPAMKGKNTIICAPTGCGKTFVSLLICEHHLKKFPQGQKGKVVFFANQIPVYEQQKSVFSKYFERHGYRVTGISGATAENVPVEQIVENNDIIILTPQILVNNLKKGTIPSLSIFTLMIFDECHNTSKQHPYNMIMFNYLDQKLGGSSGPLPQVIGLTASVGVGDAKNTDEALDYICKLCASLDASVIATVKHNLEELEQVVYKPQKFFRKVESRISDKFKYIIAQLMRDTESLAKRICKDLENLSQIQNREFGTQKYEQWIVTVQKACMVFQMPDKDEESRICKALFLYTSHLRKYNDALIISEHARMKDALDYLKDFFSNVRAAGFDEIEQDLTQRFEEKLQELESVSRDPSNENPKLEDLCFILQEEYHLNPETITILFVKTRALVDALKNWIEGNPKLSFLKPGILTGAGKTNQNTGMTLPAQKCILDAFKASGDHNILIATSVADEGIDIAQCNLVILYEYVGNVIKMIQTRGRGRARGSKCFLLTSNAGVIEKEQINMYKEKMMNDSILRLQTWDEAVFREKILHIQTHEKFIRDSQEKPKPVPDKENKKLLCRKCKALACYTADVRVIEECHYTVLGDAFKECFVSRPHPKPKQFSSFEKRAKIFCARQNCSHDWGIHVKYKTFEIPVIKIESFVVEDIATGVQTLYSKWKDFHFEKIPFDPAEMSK
The data set can be described thus: filter. The settings on record: J = PPdU at every J; SB18T0.01 + 1 mM DTT, 37 C.

In data set [2] the target is T2, RIG-I H847A (Homo sapiens) (UniProt O95786).
T2 sequence: T1 sequence with A664R, H847A
Briefly: filter. Particulars: J = PPdU at every J; SB18T0.01 + 1 mM DTT, 37 C.

As to “ATCTCTGTGTCATGTGTTTTAATGTCAGTTTAATGATGAGG [14832-55_8]”, the Kd in data set [1] was found to be 0.41 nM; in data set [2] it was 9.9 nM.
